The values that follow come from patent US20090047356A1 (published 2009).

The target in series [1] is coagulation factor X, P00742.
Series [2] deals with T1, coagulation factor VIIa (UniProt P08709 61-466, Gla (gamma-carboxyglutamate) domain mentioned; positions not given).
T1 construct: also called FVIIa
T1 sequence (looked up): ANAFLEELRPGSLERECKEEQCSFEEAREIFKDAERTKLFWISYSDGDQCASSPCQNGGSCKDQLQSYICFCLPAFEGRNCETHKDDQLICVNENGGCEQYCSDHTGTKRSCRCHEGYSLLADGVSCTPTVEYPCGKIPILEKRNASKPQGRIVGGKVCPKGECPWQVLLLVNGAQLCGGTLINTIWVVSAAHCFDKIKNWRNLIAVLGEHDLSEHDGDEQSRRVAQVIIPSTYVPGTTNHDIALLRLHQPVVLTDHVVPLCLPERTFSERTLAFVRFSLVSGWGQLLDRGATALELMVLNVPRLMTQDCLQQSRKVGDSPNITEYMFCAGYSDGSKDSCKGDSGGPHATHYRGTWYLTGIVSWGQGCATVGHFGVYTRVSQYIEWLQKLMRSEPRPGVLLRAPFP
Description: TF-dependent enhancement of factor VIIa enzymatic activity as readout for complex formation.

Series [3] concerns the target T1, coagulation factor VIIa. Kind of series: apparent Kd; TF-dependent enhancement of factor VIIa enzymatic activity as readout for complex formation.
The next series concerns the target T2, coagulation factor X (UniProt P00742 41-488, Gla (gamma-carboxyglutamate) domain mentioned; positions not given).
T2 construct: Substrate of the TF:VIIa complex
Kind of series: SPR (Biacore 3000), Nanodiscs immobilized on NTA chip via His tag of MSP1, factor X flowed over.

The target in series [4] is T1, coagulation factor VIIa. Kind of series: listed in Table 2 of binding constants for TF:VIIa complexes; method for this row not stated.

Chain of coagulation factor X, P00742 (P00742 whole entry, looked up): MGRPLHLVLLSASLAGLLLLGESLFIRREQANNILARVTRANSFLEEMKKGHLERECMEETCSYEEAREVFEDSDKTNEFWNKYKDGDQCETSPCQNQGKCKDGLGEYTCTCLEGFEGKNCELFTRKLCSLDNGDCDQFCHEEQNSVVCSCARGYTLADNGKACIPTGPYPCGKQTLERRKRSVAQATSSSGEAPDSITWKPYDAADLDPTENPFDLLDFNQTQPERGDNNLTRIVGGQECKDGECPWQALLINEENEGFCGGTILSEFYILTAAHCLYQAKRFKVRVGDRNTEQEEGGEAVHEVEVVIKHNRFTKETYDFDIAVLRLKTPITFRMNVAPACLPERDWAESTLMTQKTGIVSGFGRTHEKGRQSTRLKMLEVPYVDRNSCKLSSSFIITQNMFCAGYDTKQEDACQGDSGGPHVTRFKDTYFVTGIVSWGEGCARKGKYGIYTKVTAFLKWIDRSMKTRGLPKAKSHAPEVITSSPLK
T2 sequence (P00742 41-488 limits assumed): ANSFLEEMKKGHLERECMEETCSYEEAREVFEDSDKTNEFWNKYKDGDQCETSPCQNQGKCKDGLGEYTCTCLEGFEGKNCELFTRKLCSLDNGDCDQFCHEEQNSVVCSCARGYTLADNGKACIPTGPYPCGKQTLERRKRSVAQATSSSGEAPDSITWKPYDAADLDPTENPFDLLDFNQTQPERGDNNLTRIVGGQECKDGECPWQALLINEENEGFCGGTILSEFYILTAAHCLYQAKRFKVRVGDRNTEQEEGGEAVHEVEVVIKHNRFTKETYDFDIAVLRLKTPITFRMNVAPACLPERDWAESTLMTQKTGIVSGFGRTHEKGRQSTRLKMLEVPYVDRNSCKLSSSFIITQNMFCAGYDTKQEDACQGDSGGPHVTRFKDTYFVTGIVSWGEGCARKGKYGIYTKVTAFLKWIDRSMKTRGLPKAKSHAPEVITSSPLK

B1: rTF:VIIa complex on PCPS vesicles (TF-liposomes, 20% PS, 80% PC) (protein)
chain 1: AEDQVDPRLIDGKSGTTNTVAAYNLTWKSTNFKTILEWEPKPVNQVYTVQISTKSGDWKSKCFYTTDTECDLTDEIVKDVKQTYLARVFSYPAGNVESTGSAGEPLYENSPEFTPYLETNLGQPTIQSFEQVGTKVNVTVEDERTLVRRNNTFLSLRDVFGKDLIYTLYYWKSSSSGKKTAKTNTNEFLIDVDKGENYCFSVQAVIPSRTVNRKSTDSPVECMGQEKGEFREIFYIIGAVVFVVIILVIILAISLHK
chain 2: T1 sequence (looked up)
Consider B1, for which, in series [1], the Km (factor X activation by TF:VIIa) was 0.0202 µM and the Km, app (factor X activation by rTF:VIIa) was determined as 0.0202 µM.

B2: rTF in PCPS vesicles (20 mol % PS, 80 mol % PC; PL:rTF 8700:1) (receptor)
chain: B1 chain 1
notes: Recombinant truncated human tissue factor from E. coli (not glycosylated), reconstituted into PCPS liposomes by the Bio-Bead method; also called TF-liposomes; rTF in phospholipid vesicles
For the molecule B2, the Kd in the series with coagulation factor VIIa [2] and in the series with coagulation factor VIIa [3] was 26.4 pM each time.

B3: TF:VIIa complex on TF-Nanodiscs 10% PS, 90% PC (protein)
chain 1: B1 chain 1
chain 2: T1 sequence (looked up)
chain 3: MGHHHHHHIEGRLKLLDNWDSVTSTFSKLREQLGPVTQEFWDNLEKETEGLRQEMSKDLEEVKAKVQPYLDDFQKKWQEEMELYRQKVEPLRAELQEGARQKLHELQEKLSPLGEEMRDRARAHVDALRTHLAPYSDELRQRLAARLEALKENGGARLAEYHAKATEHLSTLSEKAKPALEDLRQGLLPVLESFKVSFLSALEEYTKKLNTQ
As to B3, the Km (factor X activation by TF:VIIa) in series [1] was 0.132 µM.

B4: rTF:VIIa complex on rTF-PCPS-nanoscale discs (TF-Nanodiscs 20% PS, 80% PC) (protein)
chain 1: B1 chain 1
chain 2: T1 sequence (looked up)
chain 3: B3 chain 3
On to B4, for which, in series [1], the Km (factor X activation by TF:VIIa) was 0.0686 µM and the Km, app (factor X activation by rTF:VIIa) amounted to 0.0686 µM.

B5: TF:VIIa complex on TF-Nanodiscs 30% PS, 70% PC (protein)
chain 1: B1 chain 1
chain 2: T1 sequence (looked up)
chain 3: B3 chain 3
B5: the Km (factor X activation by TF:VIIa) in series [1] turned out to be 0.0452 µM.

B6: Nanodiscs containing 100% POPC (no TF) (other)
chain: B3 chain 3
notes: Control discs immobilized on an NTA Biacore chip; Their only protein is MSP1; also called POPC Nanodiscs
Regarding B6, in the series with coagulation factor X, the binding result is “no binding (tested: 1 µM)”.

B7: soluble tissue factor (extracellular domain of TF) (receptor, UniProt P13726 33-251, looked up)
chain: SGTTNTVAAYNLTWKSTNFKTILEWEPKPVNQVYTVQISTKSGDWKSKCFYTTDTECDLTDEIVKDVKQTYLARVFSYPAGNVESTGSAGEPLYENSPEFTPYLETNLGQPTIQSFEQVGTKVNVTVEDERTLVRRNNTFLSLRDVFGKDLIYTLYYWKSSSSGKKTAKTNTNEFLIDVDKGENYCFSVQAVIPSRTVNRKSTDSPVECMGQEKGEFRE
notes: extracellular domain; also called sTF
For the molecule B7, the Kd in the series with coagulation factor VIIa [4] was roughly 3000 pM.
